The text below walks through data of paper PMC5206904 (DNA repair, 2015).

This experiment addresses T1, recombinant ALKBH2 with a streptavidin binding peptide tag (human, UniProt Q6NS38 1-261).
T1 sequence (looked up): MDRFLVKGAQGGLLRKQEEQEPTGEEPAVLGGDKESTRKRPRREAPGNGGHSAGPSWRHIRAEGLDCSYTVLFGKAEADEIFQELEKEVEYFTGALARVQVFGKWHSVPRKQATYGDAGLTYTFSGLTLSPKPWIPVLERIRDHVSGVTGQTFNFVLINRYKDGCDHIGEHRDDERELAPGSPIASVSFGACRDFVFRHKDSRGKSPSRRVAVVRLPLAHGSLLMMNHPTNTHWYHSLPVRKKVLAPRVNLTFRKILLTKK
The experiment can be described thus: pull-down.

B1: recombinant PCNA mutant VDK188 (natural protein, UniProt P12004 1-261, looked up)
chain: MFEARLVQGSILKKVLEALKDLINEACWDISSSGVNLQSMDSSHVSLVQLTLRSEGFDTYRCDRNLAMGVNLTSMSKILKCAGNEDIITLRAEDNADTLALVFEAPNQEKVSDYEMKLMDLDVEQLGIPEQEYSCVVKMPSGEFARICRDLSHIGDAVVISCAKDGVKFSASGELGNGNIKLSQTSNAAAEEEAVTIEMNEPVQLTFALRYLNFFTKATPLSSTVTLSMSADVPLVVEYKIADMGHLKYYLAPKIEDEEGS
Take B1: the binding result is recorded as “binds”.
